Measured values: patent publication US12478674 (dated 2025)
“And” between values parts separate entries of the source, which are not always exact repeats. Equal values may be shown once.

Key:
[1] = target: human CTLA-4 (human); test: SPR, pH 7.4, 37C
[2] = target: human CTLA-4 (human); test: SPR, pH 6.0, 37C
[3] = target: human CTLA-4 (human); test: SPR, pH 7.4, 37C; remark: listed apart in the source
[4] = target: human CTLA-4 (human); test: SPR, pH 7.4, 37C; remark: listed apart in the source
[5] = target: human CTLA-4 (human); test: SPR, pH 6.0, 37C; remark: listed apart in the source
[6] = target: human CTLA-4 (human); test: SPR, pH 6.0, 37C; remark: listed apart in the source
[7] = target: human CTLA-4 (human); test: FACS, pH 6.0
[8] = target: human CTLA-4 (human); test: FACS, pH 7.3
[9] = target: human CTLA-4 (human); test: FACS, pH 6.7, bivalent
[10] = target: human CTLA-4 (human); test: FACS, pH 7.2, bivalent
[11] = target: human CTLA-4 (human); test: FACS, pH 6.2, bivalent

Sequence of human CTLA-4 (human) (chain, as listed by the source): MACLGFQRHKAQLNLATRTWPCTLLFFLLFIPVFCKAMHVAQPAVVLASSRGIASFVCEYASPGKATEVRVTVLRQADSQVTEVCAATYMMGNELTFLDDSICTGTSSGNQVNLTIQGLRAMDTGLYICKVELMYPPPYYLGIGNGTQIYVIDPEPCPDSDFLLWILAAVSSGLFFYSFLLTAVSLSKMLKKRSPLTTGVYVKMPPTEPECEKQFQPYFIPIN

Row | Binder | EC50 [9] [nM] | EC50 [10] [nM] | EC50 [11] [nM] | further results
1 | ipilimumab (ipi) Fab (antibody, V domains shown) VH: QVQLVESGGGVVQPGRSLRLSCAASGFTFSSYTMHWVRQAPGKGLEWVTFISYDGNNKYYADSVKGRFTISRDNSKNTLYLQMNSLRAEDTAIYYCARTGWLGPFDYWGQGTLVTVSS VL: not shown |  |  |  | Kd [1]: 47 nM; Kd [2]: 21 nM; Kd [3]: 22 nM; Kd [4]: 22 nM and 14 nM; Kd [5]: 46 nM; Kd [6]: 21 nM; EC50 [7]: 7.1 nM; EC50 [8]: 5.4 nM
2 | ipi.105 IgG1 (antibody, V domains shown) VH: QVQLVESGGGVVQPGRSLRLSCAASGFTFSHYTMHWVRQAPGKGLEWVTFISYDGHNKYYADSVKGRFTISRDNSKNTLYLQMNSLRAEDTAIYYCARTGWLGPFDYWGQGTLVTVSS VL: EIVLTQSPGTLSLSPGERATLSCRASQEVGESELAWYQQKPGQAPRLLIYGAFSRATGIPDRFSGSGSGTDFTLTISRLEPEDFAVYYCQQYGSSPWTFGQGTKVEIKR | 3.45 | 3.94 | 2.6 | 
3 | ipilimumab IgG1 (antibody, V domains shown) VH: QVQLVESGGGVVQPGRSLRLSCAASGFTFSSYTMHWVRQAPGKGLEWVTFISYDGNNKYYADSVKGRFTISRDNSKNTLYLQMNSLRAEDTAIYYCARTGWLGPFDYWGQGTLVTVSS VL: not shown | 2.35 | 1.84 | 2.76 | 
4 | ipi.101 IgG1 (antibody, V domains shown) VH: QVQLVESGGGVVQPGRSLRLSCAASGFTFSHYTMHWVRQAPGKGLEWVTFISYDGHNKYYADSVKGRFTISRDNSKNTLYLQMNSLRAEDTAIYYCARTGWLGPFDYWGQGTLVTVSS VL: not shown | 4.06 | 3.81 | 3.52 | 
5 | ipi.100 IgG1 (antibody, V domains shown) VH: QVQLVESGGGVVQPGRSLRLSCAASGFTFSHYTMHWVRQAPGKGLEWVTFISYDGNNKYYADSVKGRFTISRDNSKNTLYLQMNSLRAEDTAIYYCARTGWLGPFDYWGQGTLVTVSS VL: not shown | 2.85 | 2.8 | 2.94 | 
6 | ipi.106 IgG1 (antibody, V domains shown) VH: QVQLVESGGGVVQPGRSLRLSCAASGFTFSHYTMHWVRQAPGKGLEWVTFISYDGHNKYYADSVKGRFTISRDNSKNTLYLQMNSLRAEDTAIYYCARHGWLGPFDYWGQGTLVTVSS VL: EIVLTQSPGTLSLSPGERATLSCRASQEVGESELAWYQQKPGQAPRLLIYGAFSRATGIPDRFSGSGSGTDFTLTISRLEPEDFAVYYCQQYGSSPWTFGQGTKVEIKR | 4.37 | 11.5 | 3.15 | 
7 | ipi.64 Fab (antibody, V domains shown) VH: QVQLVESGGGVVQPGRSLRLSCAASGFTFSHYTMHWVRQAPGKGLEWVTFISYDGNNKYYADSVKGRFTISRDNSKNTLYLQMNSLRAEDTAIYYCARTGWLGPFDYWGQGTLVTVSS VL: not shown |  |  |  | EC50 [7]: 3.3 nM; EC50 [8]: 140 nM
8 | ipi.64 IgG1 (antibody, V domains shown) VH: QVQLVESGGGVVQPGRSLRLSCAASGFTFSHYTMHWVRQAPGKGLEWVTFISYDGNNKYYADSVKGRFTISRDNSKNTLYLQMNSLRAEDTAIYYCARTGWLGPFDYWGQGTLVTVSS VL: not shown | 2.97 | 3.1 | 2.93 | 
